These results are taken from paper PMC10833071.

In the test the target is TdsR receptor of E. coli (on cells) (E. coli (endogenous in E. coli cells)). Description: flow cytometry on cells. For orientation: Flow cytometry measures light scatter and fluorescence of single cells or particles in a stream.

On to TepC-GFP (natural protein), for which the GFP-labeled cells is 33.1%.
